# Source: patent US20260085091A1, “PEPTIDES THAT SELECTIVELY BIND TO Trop2 AND USE THEREOF” (KYUNGPOOK NATIONAL UNIVERSITY INDUSTRY-ACADEMIC COOPERATION …, priority 2022, published 2026)
# Primed or numbered codes have the meaning given here. Ends that are not written are not given here. FITC′ = not defined here
# T1: Trop2 (trophoblast antigen 2) expressed on human tumor cell lines (human, UniProt P09758 27-323)
# T1 construct: whole, on cells; Endogenous membrane glycoprotein; also called tacstd2; Trop2-positive KKU-213 cells
# T1 sequence (looked up): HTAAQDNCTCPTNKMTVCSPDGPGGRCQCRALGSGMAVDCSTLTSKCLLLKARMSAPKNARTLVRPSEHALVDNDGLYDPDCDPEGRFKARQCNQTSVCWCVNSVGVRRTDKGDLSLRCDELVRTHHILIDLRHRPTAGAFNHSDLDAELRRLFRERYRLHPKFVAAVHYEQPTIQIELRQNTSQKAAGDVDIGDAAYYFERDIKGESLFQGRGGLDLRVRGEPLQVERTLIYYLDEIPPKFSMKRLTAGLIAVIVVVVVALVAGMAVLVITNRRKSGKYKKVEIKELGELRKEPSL
# Assays:
# [1] = Serum stability analysis by HPLC; assay type: in vitro ADME; conditions: mouse serum, 37° C., 24 h incubation, declined thereafter
# Protocol: CSTLNVESC (SEQ ID NO: 1) peptide was stable until 16 h and declined thereafter (FIG. 9).
# KKU-213 cells [2] = experiment: Transwell invasion assay (Matrigel); assay type: cell-based, human; conditions: dose-dependent
# Protocol: (§1) Serum-starved KKU-213 cells were resuspended with serum-free medium containing peptide and added to the 8.0 μm pore polycarbonate insert of a Transwell chamber (Corning Life Sciences, Tewksbury, MA, USA). For the invasion assay, the membrane was coated with 0.3 μg Matrigel matrix (Corning Life Sciences) at 37° C. for 2 h before use. Serum-containing or serum-free medium was added to the reservoir and reacted at 37° C. overnight. The migrated or invaded cells were fixed and stained with 0.1% crystal violet solution at RT for 10 min. The stained cells were counted under a light microscope.
# (§2) Trop2 is involved in EMT and metastasis, and to examine whether CSTLNVESC (SEQ ID NO: 1) peptide affects cell migration and invasion, trans-well chamber assays were performed.
# KKU-213 cells [3] = experiment: Cytotoxicity of peptide in cholangiocarcinoma cell line; assay type: cell-based, human; conditions: 24 h, concentration up to 256 μM
# Protocol: (§3) To examine whether CSTLNVESC (SEQ ID NO: 1) peptide affects cell survival, KKU-213 and KKU-055 cells were reacted with the peptide for 24 h.
# KKU-055 cells [4] = experiment: as above; assay type: cell-based, human; conditions: 24 h, concentration up to 256 μM
# Protocol: as §3
# [5] = tested on: KKU-213 subcutaneous tumor; experiment: Tumor homing assay (IVIS imaging)
# Protocol: Four-week-old BALB/c female nude mice were purchased from Orient Bio (Seongnam, Republic of Korea). The mice were cared for and maintained in conformance with the Guidelines of the Institutional Animal Care and Use Committee (IACUC) of Kyungpook National University (permission no. 2017-0077). The mice were maintained in specific-pathogen free condition, controlled temperature (22±2° C.), humidity (50±10%), and light/dark cycle (12:12 h). Sterile tablet food, water and bedding were provided ad libitum. The mice were injected subcutaneously with approximately two million KKU-213 cells resuspended in 100 μl DMEM. When the tumor size reached 200 mm^3 after approximately 4 weeks, the mice were intravenously injected with near-infrared Flamma Fluor 675-labeled peptides. After 2 h, the signal was detected using the In Vivo Imaging System (IVIS) (PerkinElmer, Waltham, MA, USA). During the analysis the mice were anesthetized with 2.5% isoflurane in a gas chamber supplied with oxygen flowmeter 0.8 L/min. […] The frozen tissues were prepared for histological examination.
# To examine the tumor homing of […] (SEQ ID NO: 1) peptide, the peptide was conjugated with Flamma 675 near-infrared dye and intravenously injected into mice bearing KKU-213 subcutaneous tumor.
# KKU-213 cells [6] = experiment: Transwell migration assay; assay type: cell-based, human; conditions: dose-dependent
# Protocol: as §1, §2
# [7] = tested on: Trop2-overexpressing MCF7 breast tumor cells; experiment: FITC-peptide cell binding (FIG. 6B); assay type: cell-based
# KKU-055 cells [8] = experiment: Cell binding affinity assay using the Ligand Tracer; parameters: species or system human
# Protocol: To determine the cell binding affinity of CSTLNVESC (SEQ ID NO: 1) peptide, a binding assay using the Ligand Tracer was performed. The machine continuously monitored the CSTLNVESC (SEQ ID NO: 1)-FITC peptide binding to KKU-213 or KKU-055 cells that was dose and time-dependent.
# [9] = tested on: Trop2-expressing KKU-213 cells; experiment: Immunofluorescence microscopic analysis of FITC-peptide binding; assay type: cell-based, human
# Protocol: For co-localization assays, cells were reacted with FITC-conjugated peptide at 4° C. for 1 h and fixed with 4% PFA at RT for 10 min. Next, cells were reacted with mouse anti-Trop2 antibody at 4° C. overnight and then with Alexa Fluor 594-labeled anti-mouse IgG antibody (Thermo Fisher Scientific) at RT for 1 h. Cells were counter-stained with DAPI and enclosed with an anti-fade agent. The slides were examined using a confocal microscope.
# (§4) To examine the binding of CSTLNVESC (SEQ ID NO: 1) peptide to cells, CSTLNVESC (SEQ ID NO: 1) peptide was tagged with FITC fluorescence dye at the carboxy terminus. […] In contrast, NSSSVDK-FITC control peptide weakly bound to both cell lines. Binding of CSTLNVESC (SEQ ID NO: 1)-FITC peptide, but not NSSSVDK-FITC peptide, to Trop2-expressing KKU-213 cells was also observed by immunofluorescence microscopic analysis (FIG. 5B).
# H460 lung tumor cells = experiment: FITC-peptide cell binding (FIG. 6B); assay type: cell-based
# [10] = tested on: Trop2-silenced KKU-213 cells; experiment: FITC-peptide binding after Trop2 silencing with siRNAs; assay type: cell-based, human; conditions: KKU-213 transfected with Trop2 siRNAs for 24 h
# From the text: To prepare Trop2-overexpressing cells for biopanning, pCMV6-AC-GFP plasmid including human Trop2 gene, tacstd2, (Origene, Rockville, MD, USA) was transfected into HEK293T cells using Lipofectamine 2000 (Thermo Fisher Scientific, Waltham, MA, USA). For Trop2 silencing, KKU-213 cells were transfected with a small-interfering RNA (siRNA) against Trop2 gene (Qiagen, Venlo, Netherlands) or control siRNA (Bioneer, Oakland, CA) using Lipofectamine RNAiMAX (Thermo Fisher Scientific). Two siRNAs, siTrop21 and siTrop22 have been designed specifically to target sequences; 5′-CCCGGGATCGTTTGCAAGTAA-3 (SEQ ID NO: 4)′ and 5′-TTGCGACATTGTGAAGGCTTA-3 (SEQ ID NO: 5)′. The silencing efficiencies were analyzed by Western blots.
# For co-localization assays, cells were reacted with FITC-conjugated peptide at 4° C. for 1 h and fixed with 4% PFA at RT for 10 min. […]
# To further examine whether the binding of CSTLNVESC (SEQ ID NO: 1)-FITC peptide to the Trop2-overexpressing cells was mediated by Trop2, Trop2 gene expression in KKU-213 cells was silenced using Trop2 siRNAs. Trop2 expression was reduced after transfection with Trop2 siRNAs for 24 h as determined by western blotting (FIG. 5C), immunofluorescence microscopy (FIG. 5D), and flow cytometry (FIG. 5E). […]
# [11] = tested on: HeLa cervical tumor cells; experiment: FITC-peptide cell binding (FIG. 6B); assay type: cell-based
# [12] = tested on: Trop2-overexpressing HEK293T cells; experiment: FITC-peptide cell binding (FIG. 6A); assay type: cell-based, human
# KKU-213 cells [13] = experiment: Flow cytometry binding of FITC-labeled peptide; assay type: cell-based, human
# Protocol: (§5) A million cells were prepared, fixed with 4% PFA, and blocked with 1% BSA at RT for 30 min. The cells were reacted with mouse anti-Trop2 antibody at RT for 1 h with agitation. Then, cells were reacted with Alexa Fluor 488-labeled anti-mouse IgG antibody at RT for 1 h. For peptide binding, cells were reacted with FITC-labeling peptide at 4° C. for 1 h with agitation. The stained cells were fixed with 4% PFA before analysis with a flow cytometer.
# as §4
# KKU-055 cells [14] = experiment: Flow cytometry binding of FITC-labeled peptide; assay type: cell-based, human
# Protocol: as §5
# as §4, with “CSTLNVESC” left out
# [15] = Systemic side effects in treated tumor-bearing mice (body weight, blood markers); assay type: in vivo; conditions: after treatment, 10 mg/kg intravenous three times per week
# From the text: (§6) To exploit the use of CSTLNVESC (SEQ ID NO: 1) peptide for targeted cancer therapy, a Trop2-targeted cytotoxic peptide consisting of CSTLNVESC (SEQ ID NO: 1), RRRRRRR (SEQ ID NO: 2) (R7), and KLAKLAKKLAKLAK (SEQ ID NO: 3) (KLA) peptides was synthesized and named CSTLNVESC (SEQ ID NO: 1)-R7-KLA. R7 is a well-known cell-penetrating peptide that enhances the internalization of peptides and proteins into cells. KLA is a cytotoxic peptide that may cause damage to mitochondrial membrane of mammalian cells when introduced into cells and induce cell death. CSTLNVESC (SEQ ID NO: 1)-R7-KLA was intravenously injected into mice bearing KKU-213 tumor (10 mg/kg, three times per week, FIG. 12A). CSTLNVESC (SEQ ID NO: 1)-targeted R7-KLA peptide reduced tumor volume (FIG. 12B) and tumor weight (FIG. 12C) more efficiently than the control peptide-targeted R7-KLA or combined treatment of CSTLNVESC (SEQ ID NO: 1), R7, and KLA.
# KKU-213 tumor = experiment: Anti-tumor growth activity in tumor-bearing mice; assay type: in vivo; conditions: 10 mg/kg intravenous, three times per week; versus control peptide-targeted R7-KLA or combined CSTLNVESC, R7, and KLA
# From the text: as §6
# [16] = molecular target: T1, Trop2 (trophoblast antigen 2) expressed …; experiment: Ligand Tracer, real-time binding of FITC-peptide to KKU-213 cells
# Protocol: To determine the cell binding affinity of […] (SEQ ID NO: 1) peptide, a binding assay using the Ligand Tracer was performed.
molecule,measurement,setting,value
CSTLNVESC [CSTLNVESC (SEQ ID NO: 1)],time until which peptide was stable in serum,[1],16 h
same,serum-induced invasion,KKU-213 cells [2],inhibited
same,cytotoxicity,KKU-213 cells [3],No cytotoxicity
same,cytotoxicity,KKU-055 cells [4],No cytotoxicity
same,accumulation and co-localization with Trop2 in tumor tissues (immunofluorescence),[5]; anti-Trop2 antibody staining of tumor tissue,accumulated and co-localized with Trop2 in tumor tissues
same,"average photons in other organs, versus control peptide",[5]; isolated organs except kidney,similar
same,serum-induced migration,KKU-213 cells [6],inhibited
CSTLNVESC (SEQ ID NO: 1)-FITC (CSTLNVESC-{FITC′}; cysteine pairing not given here) [… peptide tagged with FITC fluorescence dye at the carboxy terminus],binding to cells,[7],selectively bound
same,binding (Ligand Tracer),KKU-055 cells [8],hardly detected
same,binding to cells (immunofluorescence microscopy),[9],observed
same,binding to cells,H460 lung tumor cells,selectively bound
same,binding to Trop2-silenced cells,[10],reduced
same,binding to cells,[11],selectively bound
same,binding to cells,[12],selectively bound
same,binding to cells (flow cytometry),KKU-213 cells [13],bound to KKU-213 cells at higher levels than to KKU-055 cells
"NSSSVDK-FITC: FITC-labeled NSSSVDK control peptide (also: FITC label, site not given here) [reference compound]",binding to cells (flow cytometry),KKU-055 cells [14],weakly bound
same,binding to cells (flow cytometry),KKU-213 cells [13],weakly bound
"CSTLNVESC (SEQ ID NO: 1)-Flamma 675: CSTLNVESC peptide conjugated with Flamma 675 near-infrared dye (cysteine pairing not given here; also: conjugated with Flamma 675 near-infrared dye, site not given here)","accumulation in tumor, ex vivo imaging and average photons in isolated organs","[5]; mouse, in vivo",accumulation
same,average photons in tumor,"[5]; mouse, in vivo",higher than those of the control peptide
same,"tumor homing, whole-body imaging","[5]; mouse, in vivo, iv",homed to tumor more efficiently than the control peptide
"CSTLNVESC (SEQ ID NO: 1)-R7-KLA: Trop2-targeted cytotoxic peptide consisting of CSTLNVESC, RRRRRRR (R7), and KLAKLAKKLAKLAK (KLA) peptides (CSTLNVESCRRRRRRRKLAKLAKKLAKLAK)",level of kidney function marker BUN,[15],within normal ranges
same,level of kidney function marker creatinine,[15],within normal ranges
same,level of liver function enzyme ALP,[15],within normal ranges
same,level of liver function enzyme ALT,[15],within normal ranges
same,level of liver function enzyme AST,[15],within normal ranges
same,tumor volume,KKU-213 tumor,reduced
same,tumor weight,KKU-213 tumor,reduced
"CSTLNVESC-{FITC′} (cysteine pairing not given here, Synthetic peptide (Fmoc), from a CX7C T7 phage library; also called FITC-conjugated peptide) [CSTLNVESC (SEQ ID NO: 1)-FITC peptide]",Kd,[16],5.21 µM
